Experimental data: patent US20210095027A1 (Xencor, published 2021)

Molecular target: T1, human CD20 (human, UniProt P11836 1-297)
T1 sequence (looked up): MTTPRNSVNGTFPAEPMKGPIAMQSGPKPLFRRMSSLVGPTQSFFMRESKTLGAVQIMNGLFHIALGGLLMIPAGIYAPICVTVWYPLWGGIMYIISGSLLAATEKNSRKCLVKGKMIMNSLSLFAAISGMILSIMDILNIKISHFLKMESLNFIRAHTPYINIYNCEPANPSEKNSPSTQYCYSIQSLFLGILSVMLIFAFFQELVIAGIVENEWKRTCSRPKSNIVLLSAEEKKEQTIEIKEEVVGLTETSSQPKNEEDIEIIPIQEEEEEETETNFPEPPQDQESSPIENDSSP
Assay: cell-based or functional assay

B1: XENP13676 (bispecific antibody)
chain 1: QVQLVQSGAEVKKPGASVKVSCKASGYTFTSYNMHWVRQAPGQGLEWMGAIYPGNGDTSYNQKFQGRVTITADKSISTAYMELSSLRSEDTAVYYCARSTYYGGDWYFNVWGAGTLVTVSSASTKGPSVFPLAPSSKSTSGGTAALGCLVKDYFPEPVTVSWNSGALTSGVHTFPAVLQSSGLYSLSSVVTVPSSSLGTQTYICNVNHKPSDTKVDKKVEPKSCDKTHTCPPCPAPPVAGPSVFLFPPKPKDTLMISRTPEVTCVVVDVKHEDPEVKFNWYVDGVEVHNAKTKPREEEYNSTYRVVSVLTVLHQDWLNGKEYKCKVSNKALPAPIEKTISKAKGQPREPQVYTLPPSREEMTKNQVSLTCDVSGFYPSDIAVEWESDGQPENNYKTTPPVLDSDGSFFLYSKLTVDKSRWEQGDVFSCSVMHEALHNHYTQKSLSLSPGK
chain 2: not shown
light: QIVLTQSPSSLSASVGDRVTITCRASSSVSYIHWFQQKPGKSPKPLIYATSNLASGVPVRFSGSGSGTDYTLTISSLQPEDFATYYCQQWTSNPPTFGGGTKVEIKRTVAAPSVFIFPPSDEQLKSGTASVVCLLNNFYPREAKVQWKVDNALQSGNSQESVTEQDSKDSTYSLSSTLTLSKADYEKHKVYACEVTHQGLSSPVTKSFNRGEC
  EC50 of Jeko-1 target cell killing (RTCC) in the absence of rituximab: 0.024 µg/mL
  EC50 of Jeko-1 target cell killing (RTCC) in the presence of 3 µg/ml rituximab: 0.051 µg/mL
  EC50 of Jeko-1 target cell killing (RTCC) in the presence of 10 µg/ml rituximab: 0.093 µg/mL
  EC50 of Jeko-1 target cell killing (RTCC) in the presence of 30 µg/ml rituximab: 0.162 µg/mL
  EC50 of Jeko-1 target cell killing (RTCC) in the presence of 100 µg/ml rituximab: 0.387 µg/mL
  EC50 of RTCC against Ramos cells with purified T cells from six healthy donors: 0.0053 to 0.0143 µg/mL
